# US20240425589A1, “CYTOTOXICITY-INDUCING THERAPEUTIC AGENT FOR USE IN TREATMENT OF CANCER” (CHUGAI SEIYAKU KABUSHIKI KAISHA, priority 2021, published 2024)
# Key:
# cyno CLDN6 VLP = experiment: Biacore T200 SPR affinity to cyno CLDN6 VLP; format: binding, cynomolgus; conditions: cyno CLDN6, 25 degree C, pH 7.4
# Description: The binding affinity of the anti-CLDN6/Dual-Fab tri-specific antibody against human and cynomolgus (cyno) CLDN6 VLP (virus-like particle) at pH 7.4 was determined at 25 degree C. using Biacore T200 instrument (GE Healthcare). Anti-human CD81 (BD Pharmingen) antibody was immobilized onto all flow cells of a C1 sensor chip using amine coupling kit (GE Healthcare). Human and cyno CLDN6 VLP were captured onto the sensor surface by the anti-human CD81 antibody. Each VLP was 5-fold dilution by buffer (20 mM NaPhosphate, 150 mM NaCl, 0.1 mg/mL BSA, 0.005% NaN3, pH 7.4). Tested antibody was prepared in buffer (20 mM NaPhosphate, 150 mM NaCl, 0.1 mg/mL BSA, 0.005% NaN3, pH 7.4). Anti-CLDN6/Dual-Fab tri-specific antibody was injected at 50 and 200 nM, followed by dissociation. Sensor surface was regenerated each cycle with 0.1% SDS and 100 mM H3PO4. […] Binding affinities were determined by processing and fitting the data to 1:1 binding model using Biacore T200 Evaluation software, version 2.0 (GE Healthcare).
# recombinant cyno CD137 = recombinant cyno CD137 (Macaca fascicularis, UniProt A9YYE7); experiment: Biacore 8K SPR affinity to cyno CD137; format: binding, cynomolgus; conditions: cyno CD137, 37 degree C, pH 7.4
# recombinant cyno CD137, sequence (A9YYE7 1-254): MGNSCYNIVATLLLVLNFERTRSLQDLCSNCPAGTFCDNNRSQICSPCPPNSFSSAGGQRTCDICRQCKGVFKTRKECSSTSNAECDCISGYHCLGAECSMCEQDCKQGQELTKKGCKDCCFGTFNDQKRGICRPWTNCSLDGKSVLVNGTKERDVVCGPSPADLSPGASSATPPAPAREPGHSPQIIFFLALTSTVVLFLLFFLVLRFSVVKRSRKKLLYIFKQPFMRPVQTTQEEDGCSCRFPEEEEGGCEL
# Description: The binding affinity of the anti-CLDN6/Dual-Fab tri-specific antibody against recombinant human and cyno CD3eg (gamma and epsilon subunits of CD3) at pH 7.4 was determined at 25 degree C. using Biacore 8K instrument (GE Healthcare). The binding affinity of the anti-CLDN6/Dual-Fab tri-specific antibody against recombinant human and cyno CD137 at pH 7.4 was determined at 37 degree C. using Biacore 8K instrument (GE Healthcare). Anti-human Fc (GE Healthcare) antibody was immobilized onto all flow cells of a CM4 sensor chip using amine coupling kit (GE Healthcare). Tested antibody and analytes were prepared in ACES pH 7.4 containing 20 mM ACES, 150 mM NaCl, 0.05% Tween 20, 0.005% NaN3. Anti-CLDN6/Dual-Fab tri-specific antibody was captured onto the sensor surface by anti-human Fc. Antibody capture levels were aimed at 300 resonance unit (RU). Recombinant CD3eg and CD137 were injected at both 500 and 2000 nM, followed by dissociation. Sensor surface was regenerated each cycle with 3M MgCl2. […] Binding affinities were determined by processing and fitting the data to 1:1 binding model using Biacore Insight Evaluation software (GE Healthcare).
# [1] = Single dose toxicology study; format: in vivo, cynomolgus monkey
# Description: Potential toxicity of PPU4135 antibody (anti-CLDN6/Dual-Fab tri-specific antibody) was evaluated in toxicity study using cynomolgus monkeys compared with CS3348 antibody (anti-CLDN6/CD3 bispecific antibody). Because both PPU4135 and CS3348 antibodies cross-reacted with their antigens of cynomolgus monkey, cynomolgus monkey was selected as the animal species for evaluations in the in vivo toxicology studies. Since toxicological findings seemed to be more sensitive in male than female animals in the toxicity study with CS3348 (FIG. 14), 2 males were used for evaluation of the PPU4135-mediated toxicity. In these studies, dose levels were set at 100 (for CS3348) or 90 (for PPU4135) micro g/kg, which were approximately 2.57-fold efficacious concentration producing 80% of the maximal response.
# NIH:OVCAR-3 = experiment: OVCAR3 xenograft in huNOG mice, combination with irinotecan hydrochloride; format: in vivo; conditions: 60 days after transplantation; CS4135 0.1 mg/kg, irinotecan hydrochloride 25 mg/kg, iv days 39, 46
# Description: In this test, NOG(huNOG) mice (described in the aforementioned Example 13) transplanted with ovarian cancer cell line NIH:OVCAR-3 (OVCAR3, ATCC) and human CD34-positive cells were used. The OVCAR3 cell line was transplanted subcutaneously to the right flank of the mice, and the mice were divided into groups 39 days after transplantation. Individuals whose tumor volume reached 160 to 263 mm^3 were divided into groups. Vehicle 1 and CS4135 were administered into the mouse tail vein 39 and 46 days after transplantation. PBS containing 0.05% Tween-20 was used as Vehicle 1. Vehicle 2 and irinotecan hydrochloride (Sawai Pharmaceutical Co., Ltd.) were administered into the mouse tail vein 39 and 46 days after transplantation. Physiological saline was used as Vehicle 2.
# Tumor volume was measured 39, 42, 46, 49, 53, 57, and 60 days after transplantation, and the average tumor volume is indicated for each group. The tumor volume was calculated by the following equation: […]
# (§1) Tumor Growth Inhibition (TGI) was calculated by the following equation: […]
# CLDN6-LLC1 = CLDN6-LLC1 syngenic model, combination with anti-mouse PD-L1 antibody; format: in vivo, hCD137 KI/hCD3Tg mice; conditions: 17 days after transplantation; CS4135 0.2 mg/kg iv day 6, anti-mouse PD-L1 antibody 10 mg/kg ip days 6, 8, 10, 12, 14, 17
# Description: In this test, lung cancer cell line LLC1 forced to express claudin 6 (CLDN6) (CLDN6-LLC1) and hCD137 KI/hCD3Tg mice (described in the aforementioned Example 7) were used. The CLDN6-LLC1 cell line was transplanted subcutaneously to the right flank of the mice, and the mice were divided into groups 6 days after transplantation. Individuals whose tumor volume reached 104 to 140 mm^3 were divided into groups. The vehicle and the CS4135 antibody were administered into the mouse tail vein 6 days after transplantation. PBS containing 0.05% Tween-20 was used as the vehicle. The vehicle and anti-mouse PD-L1 antibody (BioX cell) were administered intraperitoneally to the mice 6, 8, 10, 12, 14, and 17 days after transplantation.
# Tumor volume was measured 6, 10, 12, 14, and 17 days after transplantation, and the average tumor volume was indicated for each group. The tumor volume was calculated by the following equation: […]
# as §1
molecule,measurement,setting,value
"PPU4135: anti-CLDN6/Dual-Fab tri-specific antibody, chains SEQ ID NOs 42, 51, 56, 69; CS4135 same antibody (protein) chain 1: QVQLVESGGGVVQPGGSLRLSCAASGFTFSSYTMSWVRQAPGQGLEWMGTISSGGGRTYYPDSVKGRFTISRDNSKNTLYLQMNSLRDEDTAVYYCARGDYRYDGFAYWGEGTLVTVSSASTKGPSVFPLAPSSKSTSGGTAALGCLVEDYFPEPVTVSWNSGALTSGVHTFPAVLESSGLYSLSSVVTVPSSSLGTQTYICNVNHKPSNTKVDKRVEPKSCDKTHTCPPCPAPEAAGGPSVFLFPPKPKDTLMISRTPEVTCVVVDVSHEDPEVKFNWYVDGVEVHNAKTKPREEQYASTYRVVSVLTVLHQDWLNGKEYKCKVSNKALPAPIEKTISKAKGQPREPQVYTLPPSREEMTKNQVSLTCLVKGFYPSDIAVEWESNGQPENNYKTTPPVLDSDGSFFLYSKLTVDKSRWQQGNVFSCSVMHEALHNHYTQESLSLSP chain 2: DIQMTQSPSSLSASVGDRVTITCRASYNIDSYLAWYQQKPGKAPELLIYYSTLLVDGVPDRFSGSRSGTDFTLTISSLQPEDFATYYCQHYYSIPYTFGQGTKVEIERTVAAPSVFIFPPSDEQLKSGTAKVVCLLNNFYPREAKVQWKVDNALQSGNSKESVTEQDSKDSTYSLSSTLTLSKADYEKHKVYACEVTHQGLSSPVTKSFNRGEC chain 3: QVQLVESGGGLVQPGRSLRLSCAASGFKFSNVWFHWVRQAPGKGLEWVAQIKDYYNAYAAYYAPSVKGRFTISRDDSKNSIYLQMNSLKTEDTAVYYCHYVHYASASTLLPAEGVDAWGQGTTVTVSSASTKGPSVFPLAPSSKSTSGGTAALGCLVKDYFPEPVTVSWNSGALTSGVHTFPAVLKSSGLYSLSSVVTVPSSSLGTQTYICNVNHKPSNTKVDKRVEPKSCDKTHTCPPCPAPEAAGGPSVFLFPPKPKDTLMISRTPEVTCVVVDVSHEDPEVKFNWYVDGVEVHNAKTKPREEQYASTYRVVSVLTVLHQDWLNGKEYKCKVSNKALPAPIEKTISKAKGQPREPQVYTLPPSRKEMTKNQVSLTCLVKGFYPSDIAVEWESNGQPENNYKTTPPVLDSDGSFFLYSKLTVDKSRWQQGNVFSCSVMHEALHNHYTQKSLSLSP chain 4: DIVMTQSPLSLPVTPGEPASISCQPSQEVVHMNRNTYLHWYQQKPGQAPRLLIYKVSNRFPGVPDRFSGSGSGTDFTLKISRVEAEDVGVYYCAQGTSHPFTFGQGTKLEIKRTVAAPSVFIFPPSDEQLKSGTAEVVCLLNNFYPREAKVQWKVDNALQSGNSEESVTEQDSKDSTYSLSSTLTLSKADYEKHKVYACEVTHQGLSSPVTKSFNRGEC",ka,cyno CLDN6 VLP,218000 M⁻¹ s⁻¹
same,kd,cyno CLDN6 VLP,0.000821 s⁻¹
same,ka,recombinant cyno CD137,8350 M⁻¹ s⁻¹
same,kd,recombinant cyno CD137,0.00146 s⁻¹
same,hepatobiliary damage parameters and inflammatory marker elevations,[1]; PPU4135 90 micro g/kg compared with CS3348 100 micro g/kg,dramatically mitigated
same,"AST, ALT, GLDH, ALP, TBIL, GGT, TBA and CRP","[1]; male animals, after single IV administration",Increased
same,plasma exposure levels,"[1]; male animals, until Day 8, PPU4135 90 vs CS3348 100 micro g/kg single IV",comparable
same,Tumor growth inhibition: TGI,NIH:OVCAR-3,−2%
same,Tumor growth inhibition: TGI,CLDN6-LLC1,71%
